Among the data in US20210332136A1 are viability of RT4 cells treated in vitro with rabusertib (Chk1 inhibitor) plus atezolizumab values, retold here.

The target of the assay is human PD-L1 on RT4 human bladder cancer cells (human) (UniProt Q9NZQ7). As to the kind of experiment: cell-based or functional assay.
Chain of human PD-L1 on RT4 human bladder cancer cells (human) (Q9NZQ7 19-290): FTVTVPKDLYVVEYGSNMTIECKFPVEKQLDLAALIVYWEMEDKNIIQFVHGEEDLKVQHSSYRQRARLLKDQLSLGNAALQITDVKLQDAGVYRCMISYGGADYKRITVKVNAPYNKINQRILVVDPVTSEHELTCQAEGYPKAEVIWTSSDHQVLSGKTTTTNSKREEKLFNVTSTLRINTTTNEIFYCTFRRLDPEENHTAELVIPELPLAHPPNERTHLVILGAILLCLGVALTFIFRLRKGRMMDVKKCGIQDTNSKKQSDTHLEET

In the case of atezolizumab (antibody), the viability of RT4 cells treated in vitro with rabusertib (Chk1 inhibitor) plus atezolizumab turned out to be 100%.
